Data as given in the nanobody polyreactivity screen of Harvey et al. (2022).

Experiment: yeast display, Sf9 membrane polyspecificity reagent, FACS + sequencing; frameworks hold sequencing errors
Summary of the method: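 Using colony PCR, genes from sorted yeast display clones were amplified, then sequenced on MiSeq at 2 × 250 and filtered by CDR length. The clones had been stained with 10% biotinylated, detergent-solubilized Sf9 membrane reagent for 1 hour at 4 °C and sorted by FACS into low and high (top ~1%) gates on anti-HA and streptavidin fluorescence. Polyreactivity labels come from the gate of origin.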

Row | Sequence | polyreactivity (PSR sort gate)
1 | QVQLQESGGGLVQAGGSLRLSCAASGTISQEDWKGWYRQAPGKEREFVAAIGLGSNTNYADSLKGRFTISRDNAKNTVYLQMNSLKQEDTAVYYCAVSVWQYSDHVYRGQGTQVTVSS | low polyreactivity
2 | QVQLQESGGGLVQAGGSLRLSCAASGTISVHASMGWYRQAPGKERELVAGITDGANTYYADSVKGRFTISRDNSKNTVYLQMNSLKPEDTAVYYCAAYYGTEVHFTYWGQGTQVTVSS | low polyreactivity
3 | QVQLQESGGGLVQAGGSLRLSCAASGTISYAPHMGWYRQAPGKERELVAGITIVGTTYYADSVKGRFTISRDNAKNTVYLQMNSLSPGDTAVYYCAAHSEQYTPFYYWGQGTQVTVSS | low polyreactivity
4 | QVQLQESGGGLVQAGGSLRLSCAASGTITVLYKMGWFRQAPGKEREFFASINYGTSTYYADSVKGRFTVSRDSAKNTVYLQMISLKPEDTAVYYGAAAYRWQDVYRYWGQVTQVTVSS | low polyreactivity
5 | QVQLQESGGGLVQAGGSLRLSCAASGTITVLYKMGWFRQAPGKEREFVASINYGTSTYYADSVKGRFTVSRDSAKNSVYLQMNSLKPEDTAVYYCAAAYRWQDVYRYWGQGTQVTVSS | low polyreactivity
6 | QVQLQESGGGLVQAGGSLRLSCAASGYISHADEMGWYRQAPGKDHELVASISNGGSTNYADSVKGRFTISRDHAKNTVYLQMNSLNSEDTAVYYCAAWTGQVDIHYYWGQGTQVTVSS | low polyreactivity
7 | QVQLQESGGGLVQAGGSLRLSCAASGYISHADEMGWYRQAPGKEHELVASISNGGSTNYADSVKGRFTISRDNAKNPVNLQMNSLKSEDTAVYYCAALTGQVAIHYYWGQGTQVTVSS | low polyreactivity
8 | QVQLQESGGGLVQAGGSLRLSCAASGYISSWYPMGWYRQAPGKEREFVATIAPRATTYYADSVKGRFTISRDYAKNTVYLQMNSLKPEDTAVYYCAAGPENNDVYSYWGQGTQVTVSS | low polyreactivity
9 | QVQLQESGGGLVQAGGSLRLSCAASGYISTFSSEMGWYRQAPGKERELVASIAPGCTTSYADSVKGRFTISRDNAKNTVYLQMNSLKPEDTAVYYCAVDYTVPASFGYWGQGTQVTVSS | high polyreactivity
10 | QVQLQESGGGLVQAGGSLRLSCAASGYISWYSEMGWYRQAPGKEREFVATITCGTTTNYAVSVKGRFTISRDNAKNTVYLQKNSLKPEDTAVYYCAVHDARHYEFDYWGQGTQVTVSS | high polyreactivity
11 | QVQLQESGGGLVQAGGSLRLSCAASSNNSTLDVKGWYRQAPGKEREFVASIGSGGITNYADSVKGRFTISRDNAKNTVYLQMNSLKPEDTAVYYCAVLNQAYTDLIYWGQGTQVTVSS | high polyreactivity
12 | QVQLQESGGGLVQAGGSLRLSCAESGSISRYYDMGWYRQAPGKEREFVAGISGGAITYYADSVKGRFTISRDNAKNTVYLQMNSLKPEDTAVYYCAADTGVYQYHSYWGQGTQVTVSS | low polyreactivity
13 | QVQLQESGGGLVQAGGSLRLSCAESGTIFRISDMGSYRQAPGKEREFVASITYGANTYYADSGKGRFTISRDNAKNTVYLQMNSLKPEDTAVYYCAVPPVKETILDYWGQGTQVTVCS | low polyreactivity
14 | QVQLQESGGGLVQAGGSLRLSCASSGSISGPHVMGWYRQAPGKEREFVAAINVGANTYYADNVKGRFTISRDNAKNTVYLQMNSLKPEDTAVYYCAAVYYGDIGHEYWGQGTQVTVSC | low polyreactivity
15 | QVQLQESGGGLVQAGGSLRLSCASSGTISPLPAMGWYRQAPGKEREYVAGIDTGAITNYADSVKGRFTISRDNAKNTVYLQMNSLQPEDTAVYYCAVFPAAYDYYESYYTYWGQGTQVTVSS | low polyreactivity
16 | QVQLQESGGGLVQAGGSLRLSCAVSGTIFFPLDMGWYRQAPGRELEYVAAIAEGTSTYYADSVKGRFTISRDNAKNTVYPQMYSLKPEDTAVYYCAAYRSTPQQFHYWGQGTQVTVSS | high polyreactivity
17 | QVQLQESGGGLVQAGGSLRLSCEASCYISDVNDMGWYRQAPGKEREFVAGFGYGGITNYADSVKGRFTISRDNAKNTVYLQMNSLKPKDSAVYNCAVHWGPDRGLYYWGQGTQVTVSS | high polyreactivity
18 | QVQLQESGGGLVQAGGSLRMSCAARGTIFWQWAMGWYCQAPGKERELVASISSGGTTYHADSVKGRFTISRDNAKNTVYLQMNSLKPEDTAVYYCNAPNWSVAYVYITQEMDYWGQGTQVTVSS | low polyreactivity
19 | QVQLQESGGGLVQAGGSLRMSCASSGTIFRISDMGSYRQAPGKDSEFVAAITYGANTYYADSGKGRFTISRDNAKNTVYLQMNSLKPEDTAVYYCAVPPVKETILDYWGQGTQVTVSS | low polyreactivity
20 | QVQLQESGGGLVQAGGSLRPRCAPAGTIFLSVNMGWYRHAPGEEREFVASITQGATTNYADSLIGRFTISRDNAKNTVYLQMNCQKPEDTAVYYCAAYPRFYGGKYGEYGYWGQGTQVTVSS | high polyreactivity
21 | QVQLQESGGGLVQAGGSLRPSCAASGSISDGVPMGWYRQAPGEERELVATTVLGATTNYADSVKGRFTISRGNAKYTVYLQMNSLKPEETAVYYCAAPLRYDKGFSYWGQGTQVTVSS | low polyreactivity
22 | QVQLQESGGGLVQAGGSLRQSCAASGSIFKVVDMGLYRQAPAKEREFVATIGEGGNTYYADSVKGRFTISRDNAKNTVYLQMNSLKPEDTAVYFYAVVLGSSYSYTYWGQGTQVTVSS | low polyreactivity

Row | Sequence | polyreactivity (PSR sort gate)
23 | QVQLQESGGGLVQAGGSLRQSCASSGYIFPYNSMGWYRQAPGKERGLVACIAAGTTTNYADSVKGRFTISRDNAKNTVYLQMNSLKPEDAAVYYCAALNAFNTGHWYWGQGTQVTVSS | low polyreactivity
24 | QVQLQESGGGLVQAGGSLRQSCEASGYIFPYYSMGWYRQAPGKERGLVACIAAGTTTNYADSVKVRFTISRDNAKNTVYLQMNSLKPEDAAVYYCAALNAFNPGHWYWGQGSQVTVSS | low polyreactivity
25 | QVQLQESGGGLVQAGGSLRQSYAASGYIFPSLAMGWYRQAPGKEREFVAAIGRGSTNNYADSVKGRFTISRDNAKNTAFQHMKSLKPEDTAVYYCAAAASPLTRHLYWGQGTQVSVSS | low polyreactivity
26 | QVQLQESGGGLVQAGGSLRQSYAASGYIFPSLAMGWYRQAPGKEREFVAAIGRGSTNNYADSVKGRFTISRDNAKNTAYLQMNSLKPEDTAVYYCAAAASPLNRHLYWGQGTQVTVSS | low polyreactivity
27 | QVQLQESGGGLVQAGGSLRQSYAASGYIFPSLAMGWYRQAPGKEREFVAAIGRGSTNNYEDSVKGRFTISRDNAKNTAYQQMNRLKPEDTAVYYCAAAASPLTRDLYWGQGTQVTVSS | low polyreactivity
28 | QVQLQESGGGLVQAGGSLRQSYAASGYIFPSLAMGWYRQAPGKESEFVAAIGRGSTNNYADSVKGRFTISRDNAKNTAYQQMNSLKPEDTAVYYCAAAASPLTRHLYWGQGTQVTVSS | low polyreactivity
29 | QVQLQESGGGLVQAGGSLRQSYAASGYIFPYLAMGWYRQAPGKEREFVAAIGRGSTNNYADSVKGRFTISRDNAKNTAYQQMNSLKPEDTAVYYCAGAASPLTRHLYWGQGNQVTVSS | low polyreactivity
30 | QVQLQESGGGLVQAGGSLRRSCAASGSIFSHWAMGWYRQTPGKERELVASITAGGNTNYADSVKGRFTISRDNAKNTVYLPMDSLKPEDTAVYYCAADGYYGAWDLEYYYWGQGTQVTVSS | low polyreactivity
31 | QVQLQESGGGLVQAGGSMRLSCAASGSISELRPMGWYRQAPCKQRELDAGISTGGSTNYADSVKGRFTISRDNAKNTVYLQMNSLKPEDTAVYYCASASYGEGTYDYWGQGTQVTVRS | high polyreactivity
32 | QVQLQESGGGLVQAGGSPRLSCAASDNIFPDSVMCWYRQAPGKERELVATIGFGATTNYADSVKGRFTISRDNAKNTVYLQMNSLKPEDTAVYYCAADPLIYEYFCYWGQGSQVTVSS | low polyreactivity
33 | QVQLQESGGGLVQAGGSQRLSCAASGYIFYFQYMGWYRQAPGKEREFVAAISDGANTNYADSVKGRFTISRDNAKNTEYLQMNSLKPEDTAVYYCAVYADEKYYYIYWGQGTQVTVSS | low polyreactivity
34 | QVQLQESGGGLVQAGGTITLGYYMGWYRQAPGKEREFVAGIDTGAITYYADSVKGRFTNSRDNAKNTVYLQMNSLKPEDTAVYYCAAIQTHTYAHSYCGQGTQVTVSS | high polyreactivity
35 | QVQLQESGGGLVQAGGTLRLSCAASGSIYDDTYMGWYRQAPGKERELVATIDSGSTTNYADSVKGRITISRDNAKKTVYLQMNSLKPEDTAVYYCAAADSHIDYFDYWGQGTQVTVSS | low polyreactivity
36 | QVQLQESGGGLVQAGGTLRLSCAVSGTIFFPLDMGWYRQAPGREREYVAAIAEGTSTYYADSVKGRFTISRDNAKNTVFPQMYSLKPEDTAVYYCAAYRSTPQQFHYWGQGTQVTVSS | high polyreactivity
37 | QVQLQESGGGLVQARGSLRLSCAASGYISHADEMGWYRQAPGKEHELVASFRNGGSTNYADSVKGRFTISRDNAKNTVYLQMNSLKSEDTAVYYCAAWTGQVDIHSYWCQGTQVTVSS | low polyreactivity
38 | QVQLQESGGGLVQASGSIFHEPNMCWYRQAPGKERELVAGISSGANTYYADSVKGRFTISRDNAKNTVYLQMNSLKPEDTAVYHCAVVVHLYTELRYWGQDTQVTVSS | high polyreactivity
39 | QVQLQESGGGLVQASGSLRLSCASSGNIFPDYVMAWYRLAPGKEREFVANITGGSTTNYADSVKGRFTISRDNAKNTVDLQMNSLTPEDTAVYYCAVNFGTVVLYLYWGQGTQVSVSS | high polyreactivity
40 | QVQLQESGGGLVQEGGSLRLSCAASGNISPPADMGWYRPAPGKERELVASIGTGGTTNYADSVKGRFTISRDNAKNTVYLQMNSLKPDDTAVYYCAAVRYEYNPYDYWGQGTQVTVSS | low polyreactivity
41 | QVQLQESGGGLVQEGGSLRLSCAASGNISPPADMGWYRQAHGKERELVASIGTGGTTNYADSVKGRFTISRDNAKNSVYLQMNSLKPDDTAVYYCAAVRYEYNPYDYWGQGTQVTVSS | low polyreactivity
42 | QVQLQESGGGLVQEGGSLRLSCAASGNISPPADMGWYRQAPGKERELVASIGTGGTTNYADSVKGRFTISRDNAKNTVYLQMNSLQPDDTAVYYCAAVRYEYNPYDYWGQGTQVTVSS | low polyreactivity
43 | QVQLQESGGGLVQEGGSLRLSCAASGTISQEDWMGWYRQAPGKEREFVAAIGLGSNTNYADSLKGRFTISRDNAKNTVYLQMNSLKPEDTAVYYCAVSVWQYSDHVYRGQGTQVTVSS | low polyreactivity
44 | QVQLQESGGGLVQVGGSQRLSCAASGNIFYNYAMGWYRHAQGKEREFDATINHGTSINYADSVKGRFTISRDNAKNTVYLQMNSLKPEDTAVYYCAADLSWTDNLFYWGQGTQVTVIS | low polyreactivity
